These results are taken from publication PMC3641235.

The data set relates to HDM2 (C-terminal HA);p53 (human;human?). The data set is described as follows: pull-down (anti-HA beads, real-time PCR). Particulars: 100 uM Nutlin-3A (disrupts p53-HDM2); Anti-HA protein G beads; blocked in PBST-3% BSA, IVT HDM2 30 min, Nutlin 1 h, IVT p53 1 h; washes PBST-0.1% BSA then PBS; temperature and pH not given. (Quantitative PCR measures a nucleic acid by following its amplification.)

In the case of “2ConA-HDM2 DNA template (two CONA p53 response elements)”, the binding signal (fold reduction of DNA pulled down) was 383.
